Target: equine FcRn (large alpha subunit p51) / equine beta-2-microglobulin complex, biotinylated (equine) (UniProt P30441)
Experiment: SPR (Biacore), pH 6

Sequence of UniProt P30441 (P30441 21-118, one chain of several): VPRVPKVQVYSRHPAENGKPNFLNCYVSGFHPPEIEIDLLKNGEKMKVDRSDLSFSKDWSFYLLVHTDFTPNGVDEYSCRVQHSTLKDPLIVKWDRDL

B1: equine IgG1 WT (antibody, part only; not given: Variable domains, not shown: another chain or arm of the molecule)
constant: ASTTAPKVFALAPGCGTTSDSTVALGCLVSGYFPEPVKVSWNSGSLTSGVHTFPSVLQSSGFYSLSSMVTVPASTWTSETYICNVVHAASNFKVDKRIEPIPDNHQKVCDMSKCPKCPAPELLGGPSVFIFPPNPKDTLMITRTPEVTCVVVDVSQENPDVKFNWYMDGVEVRTATTRPKEEQFNSTYRVVSVLRIQHQDWLSGKEFKCKVNNQALPQPIERTITKTKGRSQEPQVYVLAPHPDELSKSKVSVTCLVKDFYPPEINIEWQSNGQPELETKYSTTQAQQDSDGSYFLYSKLSVDRNRWQQGTTFTCGVMHEALHNHYTQKNVSKNPGK
**Q.** B1 was tested. Which Kd did it give?
**A.** The Kd was 22.5 nM.

B2: equine IgG1 N434R (antibody, part only; not given: variable domains, not shown: another chain or arm of the molecule)
constant: ASTTAPKVFALAPGCGTTSDSTVALGCLVSGYFPEPVKVSWNSGSLTSGVHTFPSVLQSSGFYSLSSMVTVPASTWTSETYICNVVHAASNFKVDKRIEPIPDNHQKVCDMSKCPKCPAPELLGGPSVFIFPPNPKDTLMITRTPEVTCVVVDVSQENPDVKFNWYMDGVEVRTATTRPKEEQFNSTYRVVSVLRIQHQDWLSGKEFKCKVNNQALPQPIERTITKTKGRSQEPQVYVLAPHPDELSKSKVSVTCLVKDFYPPEINIEWQSNGQPELETKYSTTQAQQDSDGSYFLYSKLSVDRNRWQQGTTFTCGVMHEALHRHYTQKNVSKNPGK
**Q.** B2 was tested. Which Kd did it give?
**A.** The Kd was 14 nM.

B3: equine IgG1 N434K (antibody, part only; not given: variable domains, not shown: another chain or arm of the molecule)
constant: ASTTAPKVFALAPGCGTTSDSTVALGCLVSGYFPEPVKVSWNSGSLTSGVHTFPSVLQSSGFYSLSSMVTVPASTWTSETYICNVVHAASNFKVDKRIEPIPDNHQKVCDMSKCPKCPAPELLGGPSVFIFPPNPKDTLMITRTPEVTCVVVDVSQENPDVKFNWYMDGVEVRTATTRPKEEQFNSTYRVVSVLRIQHQDWLSGKEFKCKVNNQALPQPIERTITKTKGRSQEPQVYVLAPHPDELSKSKVSVTCLVKDFYPPEINIEWQSNGQPELETKYSTTQAQQDSDGSYFLYSKLSVDRNRWQQGTTFTCGVMHEALHKHYTQKNVSKNPGK
**Q.** For B3, which Kd is on record?
**A.** Its Kd is 17.5 nM.

B4: equine IgG1 N434T (antibody, part only; not given: variable domains, not shown: another chain or arm of the molecule)
constant: ASTTAPKVFALAPGCGTTSDSTVALGCLVSGYFPEPVKVSWNSGSLTSGVHTFPSVLQSSGFYSLSSMVTVPASTWTSETYICNVVHAASNFKVDKRIEPIPDNHQKVCDMSKCPKCPAPELLGGPSVFIFPPNPKDTLMITRTPEVTCVVVDVSQENPDVKFNWYMDGVEVRTATTRPKEEQFNSTYRVVSVLRIQHQDWLSGKEFKCKVNNQALPQPIERTITKTKGRSQEPQVYVLAPHPDELSKSKVSVTCLVKDFYPPEINIEWQSNGQPELETKYSTTQAQQDSDGSYFLYSKLSVDRNRWQQGTTFTCGVMHEALHTHYTQKNVSKNPGK
**Q.** How did the Kd turn out when B4 was run?
**A.** Its Kd is 19.6 nM.

B5: equine IgG1 Y436A (antibody, part only; not given: variable domains, not shown: another chain or arm of the molecule)
constant: ASTTAPKVFALAPGCGTTSDSTVALGCLVSGYFPEPVKVSWNSGSLTSGVHTFPSVLQSSGFYSLSSMVTVPASTWTSETYICNVVHAASNFKVDKRIEPIPDNHQKVCDMSKCPKCPAPELLGGPSVFIFPPNPKDTLMITRTPEVTCVVVDVSQENPDVKFNWYMDGVEVRTATTRPKEEQFNSTYRVVSVLRIQHQDWLSGKEFKCKVNNQALPQPIERTITKTKGRSQEPQVYVLAPHPDELSKSKVSVTCLVKDFYPPEINIEWQSNGQPELETKYSTTQAQQDSDGSYFLYSKLSVDRNRWQQGTTFTCGVMHEALHNHATQKNVSKNPGK
**Q.** B5 was tested. Which Kd did it give?
**A.** The Kd was 20.4 nM.

B6: equine IgG1 N434H (antibody, part only; not given: Variable domains, not shown: another chain or arm of the molecule)
constant: ASTTAPKVFALAPGCGTTSDSTVALGCLVSGYFPEPVKVSWNSGSLTSGVHTFPSVLQSSGFYSLSSMVTVPASTWTSETYICNVVHAASNFKVDKRIEPIPDNHQKVCDMSKCPKCPAPELLGGPSVFIFPPNPKDTLMITRTPEVTCVVVDVSQENPDVKFNWYMDGVEVRTATTRPKEEQFNSTYRVVSVLRIQHQDWLSGKEFKCKVNNQALPQPIERTITKTKGRSQEPQVYVLAPHPDELSKSKVSVTCLVKDFYPPEINIEWQSNGQPELETKYSTTQAQQDSDGSYFLYSKLSVDRNRWQQGTTFTCGVMHEALHHHYTQKNVSKNPGK
**Q.** With B6 as the binder, how does the Kd read?
**A.** Its Kd is 4.1 nM.

B7: equine IgG1 N434Q (antibody, part only; not given: variable domains, not shown: another chain or arm of the molecule)
constant: ASTTAPKVFALAPGCGTTSDSTVALGCLVSGYFPEPVKVSWNSGSLTSGVHTFPSVLQSSGFYSLSSMVTVPASTWTSETYICNVVHAASNFKVDKRIEPIPDNHQKVCDMSKCPKCPAPELLGGPSVFIFPPNPKDTLMITRTPEVTCVVVDVSQENPDVKFNWYMDGVEVRTATTRPKEEQFNSTYRVVSVLRIQHQDWLSGKEFKCKVNNQALPQPIERTITKTKGRSQEPQVYVLAPHPDELSKSKVSVTCLVKDFYPPEINIEWQSNGQPELETKYSTTQAQQDSDGSYFLYSKLSVDRNRWQQGTTFTCGVMHEALHQHYTQKNVSKNPGK
**Q.** How did the Kd turn out when B7 was run?
**A.** Its Kd is 12.8 nM.

B8: equine IgG1 N434M (antibody, part only; not given: Variable domains, not shown: another chain or arm of the molecule)
constant: ASTTAPKVFALAPGCGTTSDSTVALGCLVSGYFPEPVKVSWNSGSLTSGVHTFPSVLQSSGFYSLSSMVTVPASTWTSETYICNVVHAASNFKVDKRIEPIPDNHQKVCDMSKCPKCPAPELLGGPSVFIFPPNPKDTLMITRTPEVTCVVVDVSQENPDVKFNWYMDGVEVRTATTRPKEEQFNSTYRVVSVLRIQHQDWLSGKEFKCKVNNQALPQPIERTITKTKGRSQEPQVYVLAPHPDELSKSKVSVTCLVKDFYPPEINIEWQSNGQPELETKYSTTQAQQDSDGSYFLYSKLSVDRNRWQQGTTFTCGVMHEALHMHYTQKNVSKNPGK
**Q.** With B8 as the binder, how does the Kd read?
**A.** Its Kd is 29 nM.

B9: equine IgG1 N434V (antibody, part only; not given: variable domains, not shown: another chain or arm of the molecule)
constant: ASTTAPKVFALAPGCGTTSDSTVALGCLVSGYFPEPVKVSWNSGSLTSGVHTFPSVLQSSGFYSLSSMVTVPASTWTSETYICNVVHAASNFKVDKRIEPIPDNHQKVCDMSKCPKCPAPELLGGPSVFIFPPNPKDTLMITRTPEVTCVVVDVSQENPDVKFNWYMDGVEVRTATTRPKEEQFNSTYRVVSVLRIQHQDWLSGKEFKCKVNNQALPQPIERTITKTKGRSQEPQVYVLAPHPDELSKSKVSVTCLVKDFYPPEINIEWQSNGQPELETKYSTTQAQQDSDGSYFLYSKLSVDRNRWQQGTTFTCGVMHEALHVHYTQKNVSKNPGK
**Q.** B9 was tested. Which Kd did it give?
**A.** The Kd was 31.2 nM.

B10: equine IgG1 T286D (antibody, part only; not given: variable domains, not shown: another chain or arm of the molecule)
constant: ASTTAPKVFALAPGCGTTSDSTVALGCLVSGYFPEPVKVSWNSGSLTSGVHTFPSVLQSSGFYSLSSMVTVPASTWTSETYICNVVHAASNFKVDKRIEPIPDNHQKVCDMSKCPKCPAPELLGGPSVFIFPPNPKDTLMITRTPEVTCVVVDVSQENPDVKFNWYMDGVEVRDATTRPKEEQFNSTYRVVSVLRIQHQDWLSGKEFKCKVNNQALPQPIERTITKTKGRSQEPQVYVLAPHPDELSKSKVSVTCLVKDFYPPEINIEWQSNGQPELETKYSTTQAQQDSDGSYFLYSKLSVDRNRWQQGTTFTCGVMHEALHNHYTQKNVSKNPGK
**Q.** How did the Kd turn out when B10 was run?
**A.** Its Kd is 23.9 nM.

B11: equine IgG1 N434S (antibody, part only; not given: variable domains, not shown: another chain or arm of the molecule)
constant: ASTTAPKVFALAPGCGTTSDSTVALGCLVSGYFPEPVKVSWNSGSLTSGVHTFPSVLQSSGFYSLSSMVTVPASTWTSETYICNVVHAASNFKVDKRIEPIPDNHQKVCDMSKCPKCPAPELLGGPSVFIFPPNPKDTLMITRTPEVTCVVVDVSQENPDVKFNWYMDGVEVRTATTRPKEEQFNSTYRVVSVLRIQHQDWLSGKEFKCKVNNQALPQPIERTITKTKGRSQEPQVYVLAPHPDELSKSKVSVTCLVKDFYPPEINIEWQSNGQPELETKYSTTQAQQDSDGSYFLYSKLSVDRNRWQQGTTFTCGVMHEALHSHYTQKNVSKNPGK
**Q.** For B11, which Kd is on record?
**A.** Its Kd is 10 nM.

B12: equine IgG1 N434G (antibody, part only; not given: variable domains, not shown: another chain or arm of the molecule)
constant: ASTTAPKVFALAPGCGTTSDSTVALGCLVSGYFPEPVKVSWNSGSLTSGVHTFPSVLQSSGFYSLSSMVTVPASTWTSETYICNVVHAASNFKVDKRIEPIPDNHQKVCDMSKCPKCPAPELLGGPSVFIFPPNPKDTLMITRTPEVTCVVVDVSQENPDVKFNWYMDGVEVRTATTRPKEEQFNSTYRVVSVLRIQHQDWLSGKEFKCKVNNQALPQPIERTITKTKGRSQEPQVYVLAPHPDELSKSKVSVTCLVKDFYPPEINIEWQSNGQPELETKYSTTQAQQDSDGSYFLYSKLSVDRNRWQQGTTFTCGVMHEALHGHYTQKNVSKNPGK
**Q.** For B12, which Kd is on record?
**A.** Its Kd is 5.57 nM.

B13: equine IgG1 N434Y (antibody, part only; not given: Variable domains, not shown: another chain or arm of the molecule)
constant: ASTTAPKVFALAPGCGTTSDSTVALGCLVSGYFPEPVKVSWNSGSLTSGVHTFPSVLQSSGFYSLSSMVTVPASTWTSETYICNVVHAASNFKVDKRIEPIPDNHQKVCDMSKCPKCPAPELLGGPSVFIFPPNPKDTLMITRTPEVTCVVVDVSQENPDVKFNWYMDGVEVRTATTRPKEEQFNSTYRVVSVLRIQHQDWLSGKEFKCKVNNQALPQPIERTITKTKGRSQEPQVYVLAPHPDELSKSKVSVTCLVKDFYPPEINIEWQSNGQPELETKYSTTQAQQDSDGSYFLYSKLSVDRNRWQQGTTFTCGVMHEALHYHYTQKNVSKNPGK
**Q.** How did the Kd turn out when B13 was run?
**A.** The Kd was 2.15 nM.

B14: equine IgG1 N434I (antibody, part only; not given: variable domains, not shown: another chain or arm of the molecule)
constant: ASTTAPKVFALAPGCGTTSDSTVALGCLVSGYFPEPVKVSWNSGSLTSGVHTFPSVLQSSGFYSLSSMVTVPASTWTSETYICNVVHAASNFKVDKRIEPIPDNHQKVCDMSKCPKCPAPELLGGPSVFIFPPNPKDTLMITRTPEVTCVVVDVSQENPDVKFNWYMDGVEVRTATTRPKEEQFNSTYRVVSVLRIQHQDWLSGKEFKCKVNNQALPQPIERTITKTKGRSQEPQVYVLAPHPDELSKSKVSVTCLVKDFYPPEINIEWQSNGQPELETKYSTTQAQQDSDGSYFLYSKLSVDRNRWQQGTTFTCGVMHEALHIHYTQKNVSKNPGK
**Q.** B14 was tested. Which Kd did it give?
**A.** The Kd was 44.3 nM.

B15: equine IgG1 T286E (antibody, part only; not given: variable domains, not shown: another chain or arm of the molecule)
constant: ASTTAPKVFALAPGCGTTSDSTVALGCLVSGYFPEPVKVSWNSGSLTSGVHTFPSVLQSSGFYSLSSMVTVPASTWTSETYICNVVHAASNFKVDKRIEPIPDNHQKVCDMSKCPKCPAPELLGGPSVFIFPPNPKDTLMITRTPEVTCVVVDVSQENPDVKFNWYMDGVEVREATTRPKEEQFNSTYRVVSVLRIQHQDWLSGKEFKCKVNNQALPQPIERTITKTKGRSQEPQVYVLAPHPDELSKSKVSVTCLVKDFYPPEINIEWQSNGQPELETKYSTTQAQQDSDGSYFLYSKLSVDRNRWQQGTTFTCGVMHEALHNHYTQKNVSKNPGK
**Q.** For B15, which Kd is on record?
**A.** Its Kd is 21.9 nM.

B16: equine IgG1 N434P (antibody, part only; not given: variable domains, not shown: another chain or arm of the molecule)
constant: ASTTAPKVFALAPGCGTTSDSTVALGCLVSGYFPEPVKVSWNSGSLTSGVHTFPSVLQSSGFYSLSSMVTVPASTWTSETYICNVVHAASNFKVDKRIEPIPDNHQKVCDMSKCPKCPAPELLGGPSVFIFPPNPKDTLMITRTPEVTCVVVDVSQENPDVKFNWYMDGVEVRTATTRPKEEQFNSTYRVVSVLRIQHQDWLSGKEFKCKVNNQALPQPIERTITKTKGRSQEPQVYVLAPHPDELSKSKVSVTCLVKDFYPPEINIEWQSNGQPELETKYSTTQAQQDSDGSYFLYSKLSVDRNRWQQGTTFTCGVMHEALHPHYTQKNVSKNPGK
**Q.** How did the Kd turn out when B16 was run?
**A.** The Kd was 25 nM.

From patent US20260070987A1
